Results reported in patent publication US20110033498.

Key:
poly-SUMO-2 chains (2-8) = poly-SUMO-2 chains (2-8) (UniProt P61956)
pro-SUMO-1 = pro-SUMO-1 (UniProt P63165)
Chain of pro-SUMO-1 (P63165 whole entry): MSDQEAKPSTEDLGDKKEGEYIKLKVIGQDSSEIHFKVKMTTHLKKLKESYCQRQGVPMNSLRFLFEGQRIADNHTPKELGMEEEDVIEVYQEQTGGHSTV

Chain of poly-SUMO-2 chains (2-8) (P61956 1-93): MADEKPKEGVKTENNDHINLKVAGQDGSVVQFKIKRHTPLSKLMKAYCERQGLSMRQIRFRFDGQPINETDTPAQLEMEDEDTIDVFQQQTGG

His6-SENP2CD (catalytic domain of SENP2)
in vitro hydrolysis of poly-SUMO-2 chains, Coomassie staining (poly-SUMO-2 chains (2-8)): the catalytic domain of SENP2 (SENP2CD), a SUMO-specific protease, could hydrolyze SUMO chains to monomers
in vitro hydrolysis of poly-SUMO-2 chains, SDS-PAGE and Coomassie staining (poly-SUMO-2 chains (2-8)): SENP2 reduced the chains to monomers
in vitro hydrolysis of poly-SUMO-3 chains, Coomassie staining (poly-SUMO-3 chains (2-8)): the catalytic domain of SENP2 (SENP2CD), a SUMO-specific protease, could hydrolyze SUMO chains to monomers
in vitro hydrolysis of poly-SUMO-3 chains, anti-SUMO-3 Western blot (poly-SUMO-3 chains (2-8)): An identical result was obtained when poly-SUMO-3(2-8) chains were tested
in vitro processing of pro-SUMO-1, Coomassie staining (pro-SUMO-1): could hydrolyze SUMO chains to monomers (FIG. 12D, lane 10) and process pro-SUMO-1
